Test results from PMC6362288.

Target: protein G (UniProt P19909)
Test: ELISA; polystyrene wells modified with the PrG-Gra complex (PrG adsorbed on graphene, 2:1); mAb 5, 10, 15 µg/ml; unreacted mAb in the supernatant by Bradford, bound mAb by Anti-IgGk-HRP at 450 nm

mouse monoclonal IgG2b (mAb) (antibody)
absorbance (Anti-IgGk-HRP) against PS modified with the PrG alone: 2 fold
